In experiment [1] the target is DENV-2 VLP (Dengue virus serotype 2, strain Thailand/16681/84).
Experiment [2] shares this target. Put plainly: Luminex, VLP-coupled beads.
The target in experiment [3] is DENV-2 E protein Domain III (Dengue virus serotype 2, strain Thailand/16681/1984). Put plainly: BLI, mAb on AR2G biosensor, 20 ug/mL Domain III, 1200 sec. Background: BLI is a label-free optical method that tracks binding on a fibre tip over time.
For experiment [4], the target named is DENV-4 E protein Domain III (Dengue virus serotype 4, strain Indonesia/1036/1976). The experiment is described as above.

Residue numbers refer to the chain shown, from its start.

B1: DENV2-3H11 (antibody, V domains shown)
VH: QSVEESGGRLVTPGTPLTLTCTVSGFSLINYDMSWIRQAPGKGLEWIGMVSGGGHTNYASWANGRFTISKTSSTTMDLKITSPTTEDTASYFCGRWDIWGPGTLVTVSL
VL: AVVVTQTASPVSAAVGGTVTISCQSSQSVYDDNWLAWYQQKPGQPPKQLIYRASRLASGVPSRFSGTGSGTQFTLTISGVQCDDAATYYCLGGYVDDGDTTFGGGTEVVVK
What is called koff is the rate constant with which the complex falls apart. Broadly, the EC50 is the concentration giving half of the maximal effect. As for B1, the values for the Response (nm) in experiment [1] and in experiment [3] were 2.02 nm and -0.00452 nm, respectively. The same molecule showed a koff in experiment [1] of less than 2e-05 s⁻¹. In addition, the EC50 in experiment [2] turned out to be 0.0354 µg/mL.

B2: DENV2-8D8 (antibody, V domains shown)
VH: QSLEESGGRLVKPDETLTLTCTVSGIDLSSTIITWVRQAPGKGLEYIGIIGSSGSIISANWAKGRFTISRTSTTVDLKMTSLTTEDTATYFCARIAWSTGRNDIWGPGTLVTVSS
VL: AAVLTQTPPSVSAAVGGTVTISCQSSQSVYNNNALSWYQQKPGQPPKLLIYLASNLASGVPSRFSGSGSGTQFTLTISGVQCDDAATYHCLGVDDDDVDNTFGGGTEVVVK
With B2, the Response (nm) was 0.756 nm in experiment [1] and 0.0246 nm in experiment [3]. This molecule also had a koff in experiment [1] of less than 2e-05 s⁻¹. The molecule further showed an EC50 in experiment [2] of 0.011 µg/mL.

B3: DENV2-5F4 (antibody, V domains shown)
VH: QSVEESGGRLVKPDETLTLTCTVSGIDLSNTVISWVRQAPGKGLEYIGMITPSGSAYSATWAKGRVTISRTSTTVDLKIASPTTEDTATYFCARIAWSTGRNDIWGPGTLVTVSS
VL: B2 VL with S22K, L52Q, N55K, A57S, P61S, Q72H, H89Y, V93I, D94Y, K111G
As to B3, in experiment [1], the Response (nm) stood at 1.5 nm and the koff was less than 2e-05 s⁻¹. The same molecule gave an EC50 in experiment [2] of 0.0095 µg/mL. Also, the Response (nm) in experiment [3] worked out at 0.0206 nm.

B4: DENV4-7F2 (antibody, V domains shown)
VH: QSVEESGGRLVTPGTPLTLTCTVSGIDLSYYAMGWVRQAPGEGLECIGFIDTGDSAYYASWAKGRFTISKTSSTTVDLKITSPTPEDTATYFCGRSLSSYYDWDAFDPWGPGTLVTVSS
VL: AYDMTQTPASVEVAVGGTVTINCQASQTIGNLLAWYQQKPGQRPKLLIYRASTLASGVPSRFKGSGSGTQFTLTISGVECADAATYYCQQGASANDIDNSFGGGTAVVVK
For B4, the Response (nm) in experiment [4] is -0.005 nm.

B5: DENV4-10A11 (antibody, V domains shown)
VH: QSVEESGGRLVTPGTPLTLTCTVSGINLSFYAMGWVRQAPGKGLECVGFIDTDNSAYYASWAKGRFTISKTSTTVDLKITSPTTEDTATYFCARSLSSFYDWDAFDPWGPGTLVTVSS
VL: B4 VL with N22K, Q24L, T28S, G30S, A94N, N95S, S100A, A106E
With B5, in experiment [4], the Response (nm) was determined as 0.012 nm.

B6: DENV4-7D5 (antibody, V domains shown)
VH: QSVEESGGRLVTPGTPLTLTCTVSGIDLSSWEMGWVRQAPGKGLEWIGIIFPSGTIYYANWAKGRFAISKASTTVDLKITSPTTEDTATYFCGRHGGSLYLNIWGPGTLVTVSL
VL: AQVLTQTPSPVSAAVGGTVTINCQASQSVYVNRNLAWYQQKPGQPPKVLIYEASKLASGVPSRFKGSGSGTQFTLTISGVQCDDAATYYCQGEFGCSSADCIAFGGGTEVVVK
As to B6, the Response (nm) in experiment [4] is -0.007 nm.

B7: DENV4-8C7 (antibody, V domains shown)
VH: B6 VH with W31Y, A67T, A71T
VL: B6 VL
Take B7: the Response (nm) in experiment [4] is -0.014 nm.

B8: DENV4-9G8 (antibody, V domains shown)
VH: QSLEESGGGLVKPGASLTLTCTASGFSFSYRYWMSWVRQAPGKRPEWIACIDTGNGDTYYASRAKGRFTIMKTSSTTVTLQMTSLTVADTATYFCARSDVTLTGYGYGNLWGPGTLVTVSS
VL: DSVMTQTPASVSEPVGGTVTINCQASHNIYNSLAWYQQKPGQPPKLLIYRASTLESGVPSRVKGSGYGTEYTLTISDLECADAATYYCQQYYGGDDDGFGFGGGTEVVVK
Take B8: the Response (nm) in experiment [4] was 0.264 nm.

B9: DENV4-5B11 (antibody, V domains shown)
VH: QSVEESGGRLVTPGTPLTLTCTVSGFSLSDSAMSWVRQAPGKGLEWIGYIYAGSGTTYYASWAKGRFTISKTSTTVDLKITSPTTEDTATYFCARATAYVGYGYGDDTFDPWGPGTLVTVSS
VL: AYDMTQTPASVEVAVGGTVTIKCQASQSISSYLSWYQQKPGQRPKLLIYRASTLASGVSSRFKGSGSGTEFTLTISGVQCDDAATYYCQQGYSNSDVDNVFGGGTEVVVK
Turning to B9, the Response (nm) in experiment [4] amounted to 0.02 nm.

B10: DENV4-7G4 (antibody, V domains shown)
VH: B9 VH with D30S, S31C, S34T, A52V, G53D, G55D, K71T, K79R, A96T, Y102G
VL: DVVMTQTPASVEAAVGGTVTINCQASQNINSYLSWYQQKPGQRPKLLIYRAFTLASGVSSRFKGSGSGTQFTLTISGVECADAATYYCQQGYSFSGVDNVFGGGTEVVVK
Consider B10, for which the Response (nm) in experiment [4] is -0.001 nm.

The values above are taken from patent US20260167703A1.
